First the molecules themselves.
B2: phosphorylated-Tyr701 STAT1 (1-712), N-terminal 6-histidine tag (natural protein, UniProt P42224-2 1-712, looked up)
chain: MSQWYELQQLDSKFLEQVHQLYDDSFPMEIRQYLAQWLEKQDWEHAANDVSFATIRFHDLLSQLDDQYSRFSLENNFLLQHNIRKSKRNLQDNFQEDPIQMSMIIYSCLKEERKILENAQRFNQAQSGNIQSTVMLDKQKELDSKVRNVKDKVMCIEHEIKSLEDLQDEYDFKCKTLQNREHETNGVAKSDQKQEQLLLKKMYLMLDNKRKEVVHKIIELLNVTELTQNALINDELVEWKRRQQSACIGGPPNACLDQLQNWFTIVAESLQQVRQQLKKLEELEQKYTYEHDPITKNKQVLWDRTFSLFQQLIQSSFVVERQPCMPTHPQRPLVLKTGVQFTVKLRLLVKLQELNYNLKVKVLFDKDVNERNTVKGFRKFNILGTHTKVMNMEESTNGSLAAEFRHLQLKEQKNAGTRTNEGPLIVTEELHSLSFETQLCQPGLVIDLETTSLPVVVISNVSQLPSGWASILWYNMLVAEPRNLSFFLTPPCARWAQLSEVLSWQFSSVTKRGLNVDQLNMLGEKLLGPNASPDGLIPWTRFCKENINDKNFPFWLWIESILELIKKHLLPLWNDGCIMGFISKERERALLKDQQPGTFLLRFSESSREGAITFTWVERSQNGGEPDFHAVEPYTKKELSAVTFPDIIRNYKVMAAENIPENPLKYLYPNIDKDHAFGKYYSRPKEAPEPMELDGPKGTGYIKTELISVSEV
modifications: phosphotyrosine at 701; alkylated with N-ethyl-maleimide

Several values for one entry are separate records, joined by “and”; a condition that tells them apart may be missing. Equal values may be shown once.

The data set “AUC” deals with the molecule itself. The experiment in a line: AUC.
Data set [1] concerns the target B2. The experiment in a line: SPR. (SPR reads the build-up and loss of mass on a sensor chip optically.)
Data set [2] deals with T1, pSTAT1 (1-712) F77A / L78A (UniProt P42224-2 1-712, F77A | L78A, phosphotyrosine at 701).
T1 sequence (looked up): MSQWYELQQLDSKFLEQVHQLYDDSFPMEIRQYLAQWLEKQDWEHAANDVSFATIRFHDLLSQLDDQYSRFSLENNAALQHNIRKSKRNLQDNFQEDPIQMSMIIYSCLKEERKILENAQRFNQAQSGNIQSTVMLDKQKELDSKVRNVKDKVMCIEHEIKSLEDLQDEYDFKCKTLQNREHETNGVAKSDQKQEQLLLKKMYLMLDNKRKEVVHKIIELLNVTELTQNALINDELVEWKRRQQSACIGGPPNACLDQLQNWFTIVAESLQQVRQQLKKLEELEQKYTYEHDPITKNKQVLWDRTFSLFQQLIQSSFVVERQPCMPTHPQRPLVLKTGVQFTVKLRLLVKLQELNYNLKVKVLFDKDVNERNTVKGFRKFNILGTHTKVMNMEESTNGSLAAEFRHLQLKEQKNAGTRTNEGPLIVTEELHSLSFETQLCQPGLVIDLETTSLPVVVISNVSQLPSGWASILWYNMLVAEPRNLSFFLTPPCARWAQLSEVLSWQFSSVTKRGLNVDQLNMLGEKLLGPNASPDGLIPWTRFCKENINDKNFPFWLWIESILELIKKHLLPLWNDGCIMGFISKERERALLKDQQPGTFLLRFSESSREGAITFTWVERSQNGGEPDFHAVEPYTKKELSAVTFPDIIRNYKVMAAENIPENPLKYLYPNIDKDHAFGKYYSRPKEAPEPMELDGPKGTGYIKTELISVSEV
Nature of the data set: SPR.

B1: unphosphorylated STAT1 (1-712), N-terminal 6-histidine tag (natural protein, UniProt P42224-2 1-712, looked up)
chain: MSQWYELQQLDSKFLEQVHQLYDDSFPMEIRQYLAQWLEKQDWEHAANDVSFATIRFHDLLSQLDDQYSRFSLENNFLLQHNIRKSKRNLQDNFQEDPIQMSMIIYSCLKEERKILENAQRFNQAQSGNIQSTVMLDKQKELDSKVRNVKDKVMCIEHEIKSLEDLQDEYDFKCKTLQNREHETNGVAKSDQKQEQLLLKKMYLMLDNKRKEVVHKIIELLNVTELTQNALINDELVEWKRRQQSACIGGPPNACLDQLQNWFTIVAESLQQVRQQLKKLEELEQKYTYEHDPITKNKQVLWDRTFSLFQQLIQSSFVVERQPCMPTHPQRPLVLKTGVQFTVKLRLLVKLQELNYNLKVKVLFDKDVNERNTVKGFRKFNILGTHTKVMNMEESTNGSLAAEFRHLQLKEQKNAGTRTNEGPLIVTEELHSLSFETQLCQPGLVIDLETTSLPVVVISNVSQLPSGWASILWYNMLVAEPRNLSFFLTPPCARWAQLSEVLSWQFSSVTKRGLNVDQLNMLGEKLLGPNASPDGLIPWTRFCKENINDKNFPFWLWIESILELIKKHLLPLWNDGCIMGFISKERERALLKDQQPGTFLLRFSESSREGAITFTWVERSQNGGEPDFHAVEPYTKKELSAVTFPDIIRNYKVMAAENIPENPLKYLYPNIDKDHAFGKYYSRPKEAPEPMELDGPKGTGYIKTELISVSEV
Regarding B1, in the data set “AUC”, the stoichiometry N (usually a count of units in the complex or per binding partner) was 2.

With B2, the “stoichiometry N” value in the data set “AUC” was 2 and ~4.

B3: GST-importin α5 (res. 1-512) (domain or fragment)
chain: not shown
For B3, in data set [1], the Kd (as a rule, the free concentration of one partner at which half of the binding sites on the other are occupied at equilibrium, for simple one-to-one binding) came to 166 ± 17 nM; the koff – broadly, a measure of how fast the partners let go of each other – is 0.0204 s⁻¹; the kon (commonly the second-order rate constant of association) stood at 124000 M⁻¹ s⁻¹.

B4: GST-ΔIBB-importin α5 (res. 79-538) (domain or fragment)
chain: not shown
Consider B4, for which, in data set [1], the Kd was 153 ± 16 nM, the koff was 0.0218 s⁻¹ and the kon amounted to 144000 M⁻¹ s⁻¹.

B5: GST-importin α5 (res. 1-504) (domain or fragment)
chain: not shown
Take B5: in data set [1], the Kd was 247 ± 27 nM, the koff is 0.0243 s⁻¹ and the kon was found to be 98300 M⁻¹ s⁻¹.

B6: GST-importin α5 (res. 1-538) (natural protein)
chain: not shown
In data set [2], B6 gave a Kd of 112 ± 22 nM, a koff of 0.0113 s⁻¹ and a kon of 98100 M⁻¹ s⁻¹.

The record behind these values is article PMC2930068 (Journal of molecular biology, 2010).
